Test results taken from publication PMC10945755 (Proceedings of the National Academy of Sciences of the …, 2024).
Read-outs that look alike come from different tables or passages of the source. Blank lines part the entries; values can stand above or below the binder they belong to.

B5: GABARAP (natural protein)
chain: MKFVYKEEHPFEKRRSEGEKIRKKYPDRVPVIVEKAPKARIGDLDKKKYLVPSDLTVGQFYFLIRKRIHLRAEDALFFFVNNVIPPTSATMGQLYQEHHEEDFFLYIAYSDESVYGL

Key:
TAX1BP1(1-237) [1] = biological target: T1, TAX1BP1(1-237) (UniProt Q86VP1 1-237, labeled (label not named) in the spectral shift binding assay); assay: SEC
GABARAP = biological target: B5; assay: ITC
GABARAPL1 = GABARAPL1 (UniProt Q9H0R8 1-117); assay: ITC
GABARAPL2 = GABARAPL2 (UniProt P60520 1-117); assay: SEC
Trx-TAX1BP1(1-237) [2] = biological target: T2, Trx-TAX1BP1(1-237) (UniProt Q86VP1 1-237); assay: SEC
Nano-RB1CC1(1286-1594) = Nano-RB1CC1(1286-1594) (UniProt Q8TDY2 1286-1594); assay: SEC
[3] = biological target: TAX1BP1(1-237)/RB1CC1(1286-1594) complex (Trx-TAX1BP1(1-237) with Nano-RB1CC1(1286-1594)) (UniProt Q86VP1 1-237; Q8TDY2 1286-1594); assay: SEC
[4] = biological target: TAX1BP1(1-237)/RB1CC1(1286-1594) R1375A (UniProt Q86VP1 1-237; Q8TDY2 1286-1594, R1375A); assay: SEC
[5] = biological target: TAX1BP1(1-237)/RB1CC1(1286-1395) complex (UniProt Q86VP1 1-237; Q8TDY2 1286-1395); assay: SEC
[6] = biological target: TAX1BP1(1-237)/NAP1(1-75)/RB1CC1(1286-1594) ternary complex (UniProt Q86VP1 1-237; Q9H6S1 1-75; Q8TDY2 1286-1594); assay: SEC
crystal structure = biological target: the molecule itself; assay: crystal structure
Trx-TAX1BP1(1-237) [7] = biological target: T2, Trx-TAX1BP1(1-237); assay: AUC
TAX1BP1(1-237) [8] = biological target: T1, TAX1BP1(1-237); assay: SEC; remark: listed apart in the source
TAX1BP1(1-121) = TAX1BP1(1-121) (UniProt Q86VP1 1-121, 15N-labeled in the NMR titrations); assay: ITC
AUC = biological target: the molecule itself; assay: AUC
TAX1BP1(1-237) [9] = biological target: T1, TAX1BP1(1-237); assay: spectral shift binding assay

T1 sequence (Q86VP1 1-237): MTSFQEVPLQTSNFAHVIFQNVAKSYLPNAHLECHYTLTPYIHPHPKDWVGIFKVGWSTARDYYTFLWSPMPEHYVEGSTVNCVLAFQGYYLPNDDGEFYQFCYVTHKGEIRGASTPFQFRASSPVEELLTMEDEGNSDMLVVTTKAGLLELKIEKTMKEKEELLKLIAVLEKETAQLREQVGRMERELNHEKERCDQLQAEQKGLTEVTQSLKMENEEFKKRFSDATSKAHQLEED
T2 sequence (Q86VP1 1-237): as above
TAX1BP1(1-121), sequence (Q86VP1 1-121): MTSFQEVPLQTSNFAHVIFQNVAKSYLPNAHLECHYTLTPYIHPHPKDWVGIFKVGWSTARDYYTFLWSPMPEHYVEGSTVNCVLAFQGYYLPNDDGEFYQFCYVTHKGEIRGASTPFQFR
TAX1BP1(1-237)/RB1CC1(1286-1395) complex, sequence (Q86VP1 1-237, one chain of several): as the sequence (Q86VP1 1-237) above
TAX1BP1(1-237)/NAP1(1-75)/RB1CC1(1286-1594) ternary complex, sequence (Q86VP1 1-237, one chain of several): as the sequence (Q86VP1 1-237) above
TAX1BP1(1-237)/RB1CC1(1286-1594) R1375A, sequence (Q86VP1 1-237, stated change not applied, one chain of several): as the sequence (Q86VP1 1-237) above
TAX1BP1(1-237)/RB1CC1(1286-1594) complex (Trx-TAX1BP1(1-237) with Nano-RB1CC1(1286-1594)), sequence (Q86VP1 1-237, one chain of several): as the sequence (Q86VP1 1-237) above
GABARAPL1, sequence (Q9H0R8 whole entry): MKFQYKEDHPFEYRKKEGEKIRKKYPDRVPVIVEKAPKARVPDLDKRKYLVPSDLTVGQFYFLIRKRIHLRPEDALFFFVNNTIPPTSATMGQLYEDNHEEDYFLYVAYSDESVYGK
GABARAPL2, sequence (P60520 whole entry): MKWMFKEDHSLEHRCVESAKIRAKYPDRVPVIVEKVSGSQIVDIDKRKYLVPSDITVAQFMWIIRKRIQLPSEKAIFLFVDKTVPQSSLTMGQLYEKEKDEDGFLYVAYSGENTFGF

B1: RB1CC1(1396-1594) (domain or fragment, UniProt Q8TDY2 1396-1594, looked up)
chain: SFVPSPYVATAPELYGACAPELPGESDRSAVETADEGRVDSAMETSMMSVQENIHMLSEEKQRIMLLERTLQLKEEENKRLNQRLMSQSMSSVSSRHSEKIAIRDFQVGDLVLIILDERHDNYVLFTVSPTLYFLHSESLPALDLKPGEGASGASRRPWVLGKVMEKEYCQAKKAQNRFKVPLGTKFYRVKAVSWNKKV
binding result (TAX1BP1(1-237) [1]): binds

B2: TAX1BP1(123-151) (domain or fragment, UniProt Q86VP1 123-151, looked up)
chain: SSPVEELLTMEDEGNSDMLVVTTKAGLLE
Kd (GABARAP): 4.07 µM
Kd (GABARAPL1): 9.54 µM
binding result (GABARAPL2): binds

B3: Trx-NAP1(1-75) (domain or fragment, UniProt Q9H6S1 1-75, looked up)
chain: MDALVEDDICILNHEKAHKRDTVTPVSIYSGDESVASHFALVTAYEDIKKRLKDSEKENSLLKKRIRFLEEKLIA
binding result (Trx-TAX1BP1(1-237) [2]): binds
binding result (Nano-RB1CC1(1286-1594)): binds
binding result [3]: binds

Binder: B5
binding result (TAX1BP1(1-237) [1]): binds
binding result [5]: binds
binding result [6]: binds

B6: RB1CC1(1343-1395) (domain or fragment, UniProt Q8TDY2 1343-1395, looked up)
chain: KENIINDLSDKLKSTMQQQERDKDLIESLSEDRARLLEEKKKLEEEVSKLRSS
stoichiometry N (crystal structure): 2

B8: RB1CC1(1286-1395) (domain or fragment, UniProt Q8TDY2 1286-1395, looked up)
chain: SLVAELQEKLQEEKAKFLEQLEEQEKRKNEEMQNVRTSLIAEQQTNFNTVLTREKMRKENIINDLSDKLKSTMQQQERDKDLIESLSEDRARLLEEKKKLEEEVSKLRSS
Kd (TAX1BP1(1-121)): ~4.91 µM
stoichiometry N (AUC): 2
Kd (TAX1BP1(1-237) [9]): ~1.13 µM

B10: RB1CC1(1450-1594) (domain or fragment, UniProt Q8TDY2 1450-1594, looked up)
chain: HMLSEEKQRIMLLERTLQLKEEENKRLNQRLMSQSMSSVSSRHSEKIAIRDFQVGDLVLIILDERHDNYVLFTVSPTLYFLHSESLPALDLKPGEGASGASRRPWVLGKVMEKEYCQAKKAQNRFKVPLGTKFYRVKAVSWNKKV
Kd (TAX1BP1(1-237) [9]): > 136 µM

Further lines, results first:

binding result [4]: binds
B4: NAP1(1-75) (domain or fragment, UniProt Q9H6S1 1-75, looked up)
chain: MDALVEDDICILNHEKAHKRDTVTPVSIYSGDESVASHFALVTAYEDIKKRLKDSEKENSLLKKRIRFLEEKLIA

binding result (Trx-TAX1BP1(1-237) [7]): binds
binding result (TAX1BP1(1-237) [8]): binds
B7: NAP1(33-75) (domain or fragment, UniProt Q9H6S1 33-75, looked up)
chain: ESVASHFALVTAYEDIKKRLKDSEKENSLLKKRIRFLEEKLIA

binding result (GABARAP): binds
B9: TAX1BP1(133-151) (domain or fragment, UniProt Q86VP1 133-151, looked up)
chain: EDEGNSDMLVVTTKAGLLE
